# Experimental data taken from patent US20240261333A1, “NOVEL TARGETS FOR ENHANCING ANTI-TUMOR IMMUNITY” (THE BROAD INSTITUTE, INC., priority 2021, published 2024).
# T1: B3GNT2 (Homo sapiens, UniProt Q9NY97)
# T1 construct: The respective ORFs of candidate genes [CD274 (NM_014143), MCL1 (NM_021960), JUNB (NM_002229), and B3GNT2 (NM_006577)] were synthesized; expressed in transfected cells; host or cells: A375 melanoma cells (lentiviral ORF overexpression)
# T1 sequence (Q9NY97 1-397): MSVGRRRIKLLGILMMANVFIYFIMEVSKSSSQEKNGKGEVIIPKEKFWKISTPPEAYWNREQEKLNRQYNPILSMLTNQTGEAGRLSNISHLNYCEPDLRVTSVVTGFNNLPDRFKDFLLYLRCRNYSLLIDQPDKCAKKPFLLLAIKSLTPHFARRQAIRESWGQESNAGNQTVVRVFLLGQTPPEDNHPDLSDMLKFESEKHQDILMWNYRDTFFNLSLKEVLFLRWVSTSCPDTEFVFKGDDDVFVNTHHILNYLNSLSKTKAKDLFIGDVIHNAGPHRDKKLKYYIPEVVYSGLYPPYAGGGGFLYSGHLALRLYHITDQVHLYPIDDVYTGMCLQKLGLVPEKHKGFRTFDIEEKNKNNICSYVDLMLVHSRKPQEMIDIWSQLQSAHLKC
# B1: HADHB (protein)
# chain: AAPAVQTKTKKTLAKPNIRNVVVVDGVRTPFLLSGTSYKDLMPHDLARAALTGLLHRTSVPKEVVDYIIFGTVIQEVKTSNVAREAALGAGFSDKTPAHTVTMACISANQAMTTGVGLIASGQCDVIVAGGVELMSDVPIRHSRKMRKLMLDLNKAKSMGQRLSLISKFRFNFLAPELPAVSEFSTSETMGHSADRLAAAFAVSRLEQDEYALRSHSLAKKAQDEGLLSDVVPFKVPGKDTVTKDNGIRPSSLEQMAKLKPAFIKPYGTVTAANSSFLTDGASAMLIMAEEKALAMGYKPKAYLRDFMYVSQDPKDQLLLGPTYATPKVLEKAGLTMNDIDAFEFHEAFSGQILANFKAMDSDWFAENYMGRKTKVGLPPLEKFNNWGGSLSLGHPFGATGCRLVMAAANRLRKEGGQYGLVAACAAGGQGHAMIVEAYPK
# B2: SERBP1 (protein)
# chain: PGHLQEGFGCVVTNRFDQLFDDESDPFEVLKAAENKKKEAGGGGVGGPGAKSAAQAAAQTNSNAAGKQLRKESQKDRKNPLPPSVGVVDKKEETQPPVALKKEGIRRVGRRPDQQLQGEGKIIDRRPERRPPRERRFEKPLEEKGEGGEFSVDRPIIDRPIRGRGGLGRGRGGRGRGMGRGDGFDSRGKREFDRHSGSDRSSFSHYSGLKHEDKRGGSGSHNWGTVKDELTESPKYIQKQISYNYSDLDQSNVTEETPEGEEHHPVADTENKENEVEEVKEEGPKEMTLDEWKAIQNKDRAKVEFNIRKPNEGADGQWKKGFVLHKSKSEEAHAEDSVMDHHFRKPANDITSQLEINFGDLGRPGRGGRGGRGGRGRGGRPNRGSRTDKSSASAPDVDDPEAFPALA
# B3: TIMP3 (protein)
# chain: CTCSPSHPQDAFCNSDIVIRAKVVGKKLVKEGPFGTLVYTIKQMKMYRGFTKMPHVQYIHTEASESLCGLKLEVNKYQYLLTGRVYDGKMYTGLCNFVERWDQLTLSQRKGLNYRYHLGCNCKIKSCYYLPCFVTSKNECLWTDMLSNFGYPGYQSKHYACIRQKGGYCSWYRGWAPPDKSIINATDP
# B4: CPSF6 (protein)
# chain: MADGVDHIDIYADVGEEFNQEAEYGGHDQIDLYDDVISPSANNGDAPEDRDYMDTLPPTVGDDVGKGAAPNVVYTYTGKRIALYIGNLTWWTTDEDLTEAVHSLGVNDILEIKFFENRANGQSKGFALVGVGSEASSKKLMDLLPKRELHGQNPVVTPCNKQFLSQFEMQSRKTTQSGQMSGEGKAGPPGGSSRAAFPQGGRGRGRFPGAVPGGDRFPGPAGPGGPPPPFPGNLIKHLVKGTRPLFLETRIPWHMGHSIEEIPIFGLKAGQTPPRPPLGPPGPPGPPGPPPPGQVLPPPLAGPPNRGDRPPPPVLFPGQPFGQPPLGPLPPGPPPPVPGYGPPPGPPPPQQGPPPPPGPFPPRPPGPLGPPLTLAPPPHLPGPPPGAPPPAPHVNPAFFPPPTNSGMPTSDSRGPPPTDPYGRPPPYDRGDYGPPGREMDTARTPLSEAEFEEIMNRNRAISSSAISRAVSDASAGDYGSAIETLVTAISLIKQSKVSADDRCKVLISSLQDCLHGIESKSYGSGSRRERSRERDHSRSREKSRRHKSRSRDRHDDYYRERSRERERHRDRDRDRDRERDREREYRHR
# B5: SRP14 (protein)
# chain: VLLESEQFLTELTRLFQKCRTSGSVYITLKKYDGRTKPIPKKGTVEGFEPADNKCLLRATDGKKKISTVVSSKEVNKFQMAYSNLLRANMDGLKKRDKKNKTKKTKAAAAAAAAAPAAAATAPTTAATTAATAAQ
# B6: CSE1L (protein)
# chain: MELSDANLQTLTEYLKKTLDPDPAIRRPAEKFLESVEGNQNYPLLLLTLLEKSQDNVIKVCASVTFKNYIKRNWRIVEDEPNKICEADRVAIKANIVHLMLSSPEQIQKQLSDAISIIGREDFPQKWPDLLTEMVNRFQSGDFHVINGVLRTAHSLFKRYRHEFKSNELWTEIKLVLDAFALPLTNLFKATIELCSTHANDASALRILFSSLILISKLFYSLNFQDLPEFFEDNMETWMNNFHTLLTLDNKLLQTDLVSNAIQFLASVCERPHYKNLFEDQNTLTSICEKVIVPNMEFRAADEEAFEDNSEEYIRRDLEGSDIDTRRRAACDLVRGLCKFFEGPVTGIFSGYVNSMLQEYAKNPSVNWKHKDAAIYLVTSLASKAQTQKHGITQANELVNLTEFFVNHILPDLKSANVNEFPVLKADGIKYIMIFRNQVPKEHLLVSIPLLINHLQAESIVVHTYAAHALERLFTMRGPNNATLFTAAEIAPFVEILLTNLFKALTLPGSSENEYIMKAIMRSFSLLQEAIIPYIPTLITQLTQKLLAVSKNPSKPHFNHYMFEAICLSIRITCKANPAAVVNFEEALFLVFTEILQNDVQEFIPYVFQVMSLLLETHKNDIPSSYMALFPHLLQPVLWERTGNIPALVRLLQAFLERGSNTIASAAADKIPGLLGVFQKLIASKANDHQGFYLLNSIIEHMPPESVDQYRKQIFILLFQRLQNSKTTKFIKSFLVFINLYCIKYGALALQEIFDGIQPKMFGMVLEKIIIPEIQKVSGNVEKKICAVGITKLLTECPPMMDTEYTKLWTPLLQSLIGLFELPEDDTIPDEEHFIDIEDTPGYQTAFSQLAFAGKKEHDPVGQMVNNPKIHLAQSLHKLSTACPGRVPSMVSTSLNAEALQYLQGYLQAASVTLL
# B7: SLC25A13 (protein)
# chain: AAAKVALTKRADPAELRTIFLKYASIEKNGEFFMSPNDFVTRYLNIFGESQPNPKTVELLSGVVDQTKDGLISFQEFVAFESVLCAPDALFMVAFQLFDKAGKGEVTFEDVKQVFGQTTIHQHIPFNWDSEFVQLHFGKERKRHLTYAEFTQFLLEIQLEHAKQAFVQRDNARTGRVTAIDFRDIMVTIRPHVLTPFVEECLVAAAGGTTSHQVSFSYFNGFNSLLNNMELIRKIYSTLAGTRKDVEVTKEEFVLAAQKFGQVTPMEVDILFQLADLYEPRGRMTLADIERIAPLEEGTLPFNLAEAQRQQKASGDSARPVLLQVAESAYRFGLGSVAGAVGATAVYPIDLVKTRMQNQRSTGSFVGELMYKNSFDCFKKVLRYEGFFGLYRGLLPQLLGVAPEKAIKLTVNDFVRDKFMHKDGSVPLAAEILAGGCAGGSQVIFTNPLEIVKIRLQVAGEITTGPRVSALSVVRDLGFFGIYKGAKACFLRDIPFSAIYFPCYAHVKASFANEDGQVSPGSLLLAGAIAGMPAASLVTPADVIKTRLQVAARAGQTTYSGVIDCFRKILREEGPKALWKGAGARVFRSSPQFGVTLLTYELLQRWFYIDFGGVKPMGSEPVPKSRINLPAPNPDHVGGYKLAVATFAGIENKFGLYLPLFKPSVSTSKAIGGGP
# B8: CHCHD6 (protein)
# chain: GSTESSEGRRVSFGVDEEERVRVLQGVRLSENVVNRMKEPSSPPPAPTSSTFGLQDGNLRAPHKESTLPRSGSSGGQQPSGMKEGVKRYEQEHAAIQDKLFQVAKREREAATKHSKASLPTGEGSISHEEQKSVRLARELESREAELRRRDTFYKEQLERIERKNAEMYKLSSEQFHEAASKMESTIKPRRVEPVCSGLQAQILHCYRDRPHEVLLCSDLVKAYQRCVSAAHKG
# Biological target: T1, B3GNT2
# Experiment: Co-IP of FLAG-tagged B3GNT2 followed by mass spectrometry
# Format: cell-based
# Design: C-term IgG / C-term flag: unit not given here
# Conditions: Co-IP followed by mass spectrometry of B3GNT2; C-term tag, FLAG pull-down
# Procedure, shortened: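 FLAG-tagged B3GNT2 immunoprecipitated from cell lysate (HEPES, 1% Triton X-100, 150 mM NaCl) with anti-FLAG versus […], overnight at 4° C, then captured on Protein A/G magnetic beads for 4 h. Two biological replicates per condition. Peptides fractionated and analyzed by nano-LC on an Orbitrap Elite in data-dependent mode.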
row,Molecule,C-term flag
1,B1,3
2,B2,10
3,B3,3
4,B4,35
5,B5,3
6,B6,3

# Same assay, conditions: Co-IP followed by mass spectrometry of B3GNT2; C-term tag, IgG pull-down
row,Molecule,C-term IgG
1,B1,0
2,B2,5
3,B3,0
4,B4,33
5,B5,0
6,B6,0

# Same assay, conditions: Co-IP followed by mass spectrometry of B3GNT2; N-term tag, FLAG pull-down
row,Molecule,N-term FLAG
1,B1,0
2,B2,0
3,B3,0
4,B4,30
5,B5,0
6,B6,0

# Same assay, conditions: Co-IP followed by mass spectrometry of B3GNT2; N-term tag, IgG pull-down
row,Molecule,N-term IgG
1,B1,0
2,B2,4
3,B3,0
4,B4,28
5,B5,0
6,B6,0

# Same assay, conditions: Co-IP with FLAG antibody, C-terminally FLAG-tagged B3GNT2; mass spectrometry count, unit not given
row,Molecule,C-term flag
1,B7,0
2,B8,3

# Same assay, conditions: Co-IP with FLAG antibody, N-terminally FLAG-tagged B3GNT2; mass spectrometry count, unit not given
row,Molecule,N-term FLAG
1,B7,3
2,B8,0

# Same assay, conditions: Co-IP with IgG control antibody, C-terminally FLAG-tagged B3GNT2; mass spectrometry count, unit not given
row,Molecule,C-term IgG
1,B7,0
2,B8,0

# Same assay, conditions: Co-IP with IgG control antibody, N-terminally FLAG-tagged B3GNT2; mass spectrometry count, unit not given
row,Molecule,N-term IgG
1,B7,0
2,B8,0
